The target of assay [1] is LAG-3-hFc protein (human LAG-3 extracellular region with hFc tag) (human) (UniProt P18627). As to the kind of experiment: FACS, inhibition of LAG-3-hFc binding to MHC II on Raji cells, antibody 200.000 nM. (In general: A flow cytometer gives signals particle by particle.)
In assay [2] the target is human LAG-3 on cells (HEK293-hLAG-3 stable cell line) (human) (UniProt P18627). Nature of the assay: FACS, HEK293-hLAG-3, antibody 8.000 nM.
The target in assay [3] is LAG-3-hFc protein (human LAG-3 extracellular region with hFc tag) (human) (UniProt P18627). Nature of the assay: ELISA, inhibition of LSECtin-His binding to coated LAG-3-hFc, antibody 200.000 nM, replicate 2. (ELISA stands for enzyme-linked immunosorbent assay.)
For assay [4] the target is unchanged. Nature of the assay: ELISA, inhibition of LSECtin-His binding to coated LAG-3-hFc, antibody 1.600 nM, replicate 1.
Assay [5] has the same target. Nature of the assay: ELISA, inhibition of LSECtin-His binding to coated LAG-3-hFc, antibody 0.064 nM, replicate 2.
Assay [6] shares this target. As to the kind of experiment: ELISA, inhibition of LSECtin-His binding to coated LAG-3-hFc, antibody 0.013 nM, replicate 1.
For assay [7] the target is unchanged. As to the kind of experiment: ELISA, inhibition of LSECtin-His binding to coated LAG-3-hFc, antibody 40.000 nM, replicate 2.
In assay [8] the target is monkey LAG-3 on cells (HEK293-cLAG-3 stable cell line) (monkey). Nature of the assay: FACS, HEK293-cLAG-3, antibody 1.600 nM.
Sequence of monkey LAG-3 on cells (HEK293-cLAG-3 stable cell line) (monkey) (P18627 other isoform, or with tags, fused parts or gaps limits assumed): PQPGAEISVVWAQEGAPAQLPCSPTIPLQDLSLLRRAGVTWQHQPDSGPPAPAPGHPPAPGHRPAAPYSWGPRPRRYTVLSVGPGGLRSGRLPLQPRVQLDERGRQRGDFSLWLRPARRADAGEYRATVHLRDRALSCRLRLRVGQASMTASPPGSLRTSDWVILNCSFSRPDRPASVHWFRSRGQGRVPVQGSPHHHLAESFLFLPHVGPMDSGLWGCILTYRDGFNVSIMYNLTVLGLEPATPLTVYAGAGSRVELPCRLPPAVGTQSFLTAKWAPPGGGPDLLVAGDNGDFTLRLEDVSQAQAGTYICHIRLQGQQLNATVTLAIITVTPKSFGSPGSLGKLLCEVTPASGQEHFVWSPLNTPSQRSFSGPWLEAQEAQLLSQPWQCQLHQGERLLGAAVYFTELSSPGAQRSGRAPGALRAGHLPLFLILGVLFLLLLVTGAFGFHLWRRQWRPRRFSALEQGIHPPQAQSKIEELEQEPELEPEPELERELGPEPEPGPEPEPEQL
The target in assay [9] is human LAG-3 on cells (HEK293-hLAG-3 stable cell line) (human) (UniProt P18627). Nature of the assay: FACS, HEK293-hLAG-3, antibody 1.600 nM.
Assay [10] deals with monkey LAG-3 on cells (HEK293-cLAG-3 stable cell line) (monkey). As to the kind of experiment: FACS, HEK293-cLAG-3, antibody 0.320 nM.
The target is the same in assay [11]. Nature of the assay: FACS, HEK293-cLAG-3, antibody 0.000 nM.
Assay [12] has as its target LAG-3-hFc protein (human LAG-3 extracellular region with hFc tag) (human) (UniProt P18627). Nature of the assay: FACS, inhibition of LAG-3-hFc binding to MHC II on Raji cells, antibody 7.407 nM.
Assay [13] deals with monkey LAG-3 on cells (HEK293-cLAG-3 stable cell line) (monkey). As to the kind of experiment: FACS, HEK293-cLAG-3, antibody 40.000 nM.
Assay [14] has as its target LAG-3-hFc protein (human LAG-3 extracellular region with hFc tag) (human) (UniProt P18627). As to the kind of experiment: ELISA, inhibition of LSECtin-His binding to coated LAG-3-hFc, antibody 0.013 nM, replicate 2.
Assay [15] shares this target. As to the kind of experiment: ELISA, inhibition of LSECtin-His binding to coated LAG-3-hFc, antibody 0.000 nM, replicate 2.
Assay [16] deals with human LAG-3 on cells (HEK293-hLAG-3 stable cell line) (human) (UniProt P18627). Nature of the assay: FACS, HEK293-hLAG-3, antibody 1.6 nM.
Assay [17] concerns the target monkey LAG-3 on cells (HEK293-cLAG-3 stable cell line) (monkey). As to the kind of experiment: FACS, HEK293-cLAG-3, antibody 0.013 nM.
Assay [18] concerns the target T1, human LAG-3 on cells (HEK293-hLAG-3 stable cell line) (human, UniProt P18627 23-525).
T1 sequence: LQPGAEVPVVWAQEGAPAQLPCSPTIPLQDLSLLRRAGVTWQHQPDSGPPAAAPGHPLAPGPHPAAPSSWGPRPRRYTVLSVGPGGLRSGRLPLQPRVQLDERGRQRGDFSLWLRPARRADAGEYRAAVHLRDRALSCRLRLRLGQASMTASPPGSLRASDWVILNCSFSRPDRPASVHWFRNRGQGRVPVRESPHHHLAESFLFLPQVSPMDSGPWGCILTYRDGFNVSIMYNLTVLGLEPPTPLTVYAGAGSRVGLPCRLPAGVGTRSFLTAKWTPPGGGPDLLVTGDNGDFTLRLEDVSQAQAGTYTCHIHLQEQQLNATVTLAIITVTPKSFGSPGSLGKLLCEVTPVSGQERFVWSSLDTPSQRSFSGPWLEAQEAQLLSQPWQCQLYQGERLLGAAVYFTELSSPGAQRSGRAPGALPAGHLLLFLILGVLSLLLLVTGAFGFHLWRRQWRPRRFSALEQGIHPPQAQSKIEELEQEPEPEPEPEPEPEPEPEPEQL
Nature of the assay: FACS, HEK293-hLAG-3, antibody 8 nM.

For assay [19], the target named is T1, human LAG-3 on cells (HEK293-hLAG-3 …). As to the kind of experiment: FACS, HEK293-hLAG-3, antibody 40 nM.
Assay [20] shares this target. Nature of the assay: FACS, HEK293-hLAG-3, antibody 1.6 nM.
Assay [21] shares this target. Nature of the assay: FACS, HEK293-hLAG-3, antibody 1.6 nM. This is another data set of the same source.
The target is the same in assay [22]. Nature of the assay: FACS, HEK293-hLAG-3, antibody 0.064 nM. The text has this: (§1) A. The binding of antibodies to LAG-3 expressing cells was detected by Flow cytometry (FACS), wherein the method was according to that of Example 5.
For assay [23] the target is unchanged. Nature of the assay: FACS, HEK293-hLAG-3, antibody 40 nM.
Excerpt: as §1
This is another data set of the same source.

Our source for the Inhibition rate (%) and Mean fluorescence intensity values is patent publication US20210155689A1 (SHANGHAI PHARMAEXPLORER, published 2021).

As for hIgG control (antibody), the Inhibition rate (%) is 12.3% in assay [1]; -2.2% in [3]; -21.6% in assay [4]; -11.2% in assay [5]; -12.9% in assay [6]; -3.5% in assay [7]. Also, the Inhibition rate (%) is 8.8% in assay [12], -15.7% in [14] and -3.6% in assay [15]. The Mean fluorescence intensity in assay [2] turned out to be 3; in [8], 3.25; in assay [9], 2.7; in assay [10] it was 3.13; in assay [11], 2.86; in [13], 2.88. Further, the Mean fluorescence intensity in assay [16] is 4; in [17], 2.87.

B1: 556F6B8 mouse-human chimeric antibody (antibody, V domains shown)
VH: RVQLKQSGPGLVQPSQSLSITCTVSGFSLIKYGVHWVRQSPGEGLEWLGVIWRGGITDYNAAFMSRLSITKDNSKSQVFFKMNSLQADDTAIYYCAKWDGPLAMDYWGQGTSVTVSS
VL: DIVMTQSHKFLSTSVGDRVSITCKASQDVGTTVAWYQQKPGQSPKLLIYWASTRHTGVPDRFTGSGSGTDFTLTISNVQSEDLADYFCQQYSSYPYTFGGGTKLEIK
notes: also called mAb123-556F6B8; 556F8B8
On to B1, for which the Mean fluorescence intensity in assay [18] stood at 90; in [19] it was 96; in assay [20], 67.

B2: 405B8H3 mouse-human chimeric antibody (antibody, V domains shown)
VH: QVQLQQSGAELVRPGASVTLSCKASGYTFTDYEMHWVKQTPVHGLEWIGATDPETGNSAYNQKFKGKAIMTADKSSSTAYMELRSLTSEDSAVYYCISTGWNDWGQGTSLTVSS
VL: DIKMTQSPSSMYASLGERVTITCKASQDINSYLSWFQQKPGKSPKTLIYRADRLLDGVPSRFSGSGSGQDYSLTISSLEYGDMGIYYCLQYDEFPYTFGGGTKLEIK
notes: also called mAb103-405B8H3
With B2, the figures for the Mean fluorescence intensity in assay [21], in assay [22] and in assay [23] were 139, 19 and 266, respectively.
